In patent US20230220053A1 (published 2023):
Changes are numbered by the printed parent chain. Like-named read-outs stand apart in the source and are kept apart here.

B1: 2020EP54-H01 scFv (scFv)
scFv: QVQLVESGGGVVQPGRSLRLSCAASGFTFSSYGMHWVRQAPGKGLEWVAVISYDGSNKYYADSVKGRFTISRDNSKNTLYLQMNSLRAEDTAVYYCAKGRGWYLDYWGQGTLVTVSSGGGGSGGGGSGGGGSNFMLTQPPSVSVSPGQTASITCSGDKLGDKYACWYQQKPGQSPVLVMYEDYKRPSGIPARFSGSNSGNTATLTISRVEGGDEGDYYCQVWDSRGPEVIFGGGTKLTVL
notes: also called 2020EP054-H01
B2: 2020EP54-E10 scFv (scFv)
scFv: QVQLVQSGAEVRKPGSSVKVSCKASGGTFSSFAISWVRQAPGQGLEWMGGIIPIFDTATYAQNFQGRVRMTADESTNTAYMELSSLTSEDTAVYYCARSTSYYDSRGDYKVGDFDYWGQGTLVTVSSGGGGSGGGGSGGGGSAIRMTQSPSSLSASVGDRVTITCQASQDISNYLNWYQQKPGKAPKLLIYDASNLETGVPSRFSGSGSGTDFTFTISSLQPEDIATYYCQQYDNLPLTFGGGTKVEIK
notes: also called 2020EP054-E10
B3: 2020EP54-E12 scFv (scFv)
scFv: EVQLVESGGGLVQPGGSLRLSCAVTGFIVSSNYMNWVRQAPGKGLEWVSVIYSGGTTYYADSVKGRFTISRDKSKNTLYLQMNNLRAEDTAMYYCATLGNDYGDYGTDYWGQGTLVTVSSGGGGSGGGGSGGGGSQLVLTQPPSVSVSPGQTASISCSGDRLGQKYTSWYQQRPGQSPVLIMYQDNKRPSGIPERFSGSNSGNTATLTISGIQSMDEADYYCQVWDSGSDHAVFGGGTQLTVL
notes: also called 2020EP054-E12
B4: 2020EP54-E12 IgG1 (antibody, V domains shown)
VH: EVQLVESGGGLVQPGGSLRLSCAVTGFIVSSNYMNWVRQAPGKGLEWVSVIYSGGTTYYADSVKGRFTISRDKSKNTLYLQMNNLRAEDTAMYYCATLGNDYGDYGTDYWGQGTLVTVSS
VL: QLVLTQPPSVSVSPGQTASISCSGDRLGQKYTSWYQQRPGQSPVLIMYQDNKRPSGIPERFSGSNSGNTATLTISGIQSMDEADYYCQVWDSGSDHAVFGGGTQLTVL
notes: also called 2020EP054-E12; EP054-E12, IgG1
B5: 2020EP54-B12 IgG1 (antibody, V domains shown)
VH: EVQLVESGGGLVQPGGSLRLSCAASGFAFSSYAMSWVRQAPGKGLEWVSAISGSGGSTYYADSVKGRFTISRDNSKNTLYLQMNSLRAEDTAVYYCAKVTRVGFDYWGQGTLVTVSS
VL: SYELTQPPSVSVAPGKTARITCGGNNIGSKSVHWYQQKPGQAPVLVIYYDSDRPSGIPERFSGSNSGNTATLTISRVEAEDEADYYCQVWDSSSDVVFGGGTKLTVL
notes: also called 2020EP054-B12; EP054-B12, IgG1
B6: 2020EP54-H01 IgG1 (antibody, V domains shown)
VH: QVQLVESGGGVVQPGRSLRLSCAASGFTFSSYGMHWVRQAPGKGLEWVAVISYDGSNKYYADSVKGRFTISRDNSKNTLYLQMNSLRAEDTAVYYCAKGRGWYLDYWGQGTLVTVSS
VL: NFMLTQPPSVSVSPGQTASITCSGDKLGDKYACWYQQKPGQSPVLVMYEDYKRPSGIPARFSGSNSGNTATLTISRVEGGDEGDYYCQVWDSRGPEVIFGGGTKLTVL
notes: also called 2020EP054-H01; EP054-H01, IgG1
B7: 2020EP60-F05 scFv (scFv)
scFv: QVQLVESGGGVVQPGGSLRLSCAASGFTFSSYGMHWVRQAPGKGLEWVAVISYDGSNKYYADSVKGRFTISRDNSKNTLYLQMNSLRAEDTAVYYCAKARVALGYFDWLLYDGMDVWGQGTTVTVSSGGGGSGGGGSGGGGSSSELTQPPSVSVSPGQTASITCSGDKLGNKYVFWYQQKPGQSPILVIYQDNRRPSGIPERFSGSNSGNTATLTISGDPAMDEADYYCQAWDSSTVVFGGGTKLTVL
B8: 2020EP61-A08 scFv (scFv)
scFv: QVQLVQSGAEVKKPGASVKVSCKASGYTFTSYYMHWVRQAPGQGLEWMGIINPSGGSTSYAQKFQGRVTMTRDTSTSTVYMELSSLRSEDTAVYYCARESGNYYYDSSGYTFDYWGQGTLVTVSSGGGGSGGGGSGGGGSSYVLTQPLSVSVALGQTARITCGGNNIGSKNVHWYQQKPGQAPVLVIYYDSDRPSGIPERFSGSNSGNTATLTISGTQAMDEADYYCQAWDSSTVVFGGGTKLTVL
B9: 2020EP53-D06 scFv (scFv)
scFv: QVQLVQSGGGVVQPGRSLRLSCAASGFTFSSYAMHWVRQAPGKGLEWVAVISYDGSNKYYADSVKGRFTISRDNSKNTLYLQMNSLRAEDTAVYYCARDGEDGYNYISPFDYWGQGTLVTVSSGGGGSGGGGSGGGGSSYELTQPPSVSVAPGETARITCRGNDIGSKSVHWYQQKPGQAPVLVLYYDSDRPSGIPERFSGSNSGNTATLTISSVEAGDEADYYCQVWDIDVVFGGGTKLTVL
B10: 2020EP64-G10 scFv (scFv)
scFv: B9 scFv with G137R, Q226H
B11: 2020EP66-D03 scFv (scFv)
scFv: QVQLQQWGAGLLKPSETLSLTCAVYGGSFSGYYWSWIRQPPGKGLEWIGEINHSGSTNYNPSLKSRVTISVDTSKNQFSLKLSSVTAADTAVYYCARGPPLWNYGKGFDYWGQGTLVTVSSGGGGSGKGGSGGGGSQPVLTQPPSASGTPGQRVTISCSGSSSNIGSNYVYWYQQLPRTAPKLLIYRNNQRPSGVPDRFSGSKSGTSASLAISGLRSEDEADYYCAAWDDSLSAWVFGGGTKLTVL

Tests used:
[1] = biological target: T1, S1 protein of SARS-CoV-2 (recombinant, construct not stated) (SARS-CoV-2, UniProt P0DTC2 16-685)
[2] = biological target: T1, S1 protein of SARS-CoV-2 (recombinant, …); experiment: ELISA, S1 coated, scFv titrated, anti-Flag HRP
[3] = biological target: T2, RBD of SARS-CoV-2 spike protein S1 (recombinant, construct not stated) (SARS-CoV-2, UniProt P0DTC2 328-533); experiment: ELISA, RBD coated, scFv titrated, anti-Flag HRP
T2 construct: also called SARS-COV-2, RBD; RBD-AF647

[4] = biological target: T3, S1-Fc (SARS-CoV-2 S1 protein, Fc fusion) (SARS-CoV-2, UniProt P0DTC2 16-685); experiment: SPR (Biacore T200), S1 captured on anti-human Fc chip, scFv injected
[5] = biological target: T4, SARS-CoV-2-RBD (328-533)-Fc (SARS-CoV-2); experiment: SPR (Biacore T200), RBD captured on anti-human Fc chip, scFv injected
T4 construct: also called RBD-Fc

[6] = biological target: T2, RBD of SARS-CoV-2 spike protein S1 …
[7] = biological target: T1, S1 protein of SARS-CoV-2 (recombinant, …); remark: listed apart in the source
[8] = biological target: T3, S1-Fc (SARS-CoV-2 S1 protein, Fc fusion); experiment: SPR (Biacore T200), S1 captured on anti-human Fc chip, scFv injected; remark: listed apart in the source
[9] = biological target: T4, SARS-CoV-2-RBD (328-533)-Fc; experiment: SPR (Biacore T200), RBD captured on anti-human Fc chip, scFv injected; remark: listed apart in the source
[10] = biological target: T1, S1 protein of SARS-CoV-2 (recombinant, …); remark: listed apart in the source
[11] = biological target: T1, S1 protein of SARS-CoV-2 (recombinant, …); remark: listed apart in the source
[12] = biological target: T1, S1 protein of SARS-CoV-2 (recombinant, …); experiment: ELISA, S1 coated, IgG1 titrated, anti-human Fc HRP
[13] = biological target: T2, RBD of SARS-CoV-2 spike protein S1 …; experiment: ELISA, RBD coated, IgG1 titrated, anti-human Fc HRP
[14] = biological target: T5, S1 protein of SARS-COV (ACRO Biosciences) (SARS-COV, UniProt P59594 14-667); experiment: ELISA, SARS-COV S1 coated, IgG titrated, anti-human Fc HRP
T5 construct: domain: S1

[15] = biological target: S protein of SARS-COV-2 (Sino Biologics) (SARS-CoV-2, UniProt P0DTC2 16-1213); experiment: ELISA, S protein (Sino Biologics) coated, anti-human Fc HRP
[16] = biological target: T6, RBD of SARS-COV (ACRO Biosciences) (SARS-COV, UniProt P59594 306-527); experiment: ELISA, SARS-COV RBD coated, IgG titrated, anti-human Fc HRP
T6 construct: domain: RBD; also called RBD-SARS; SARS-COV, RBD

[17] = biological target: T1, S1 protein of SARS-CoV-2 (recombinant, …); experiment: SPR (Biacore T200), IgG captured on protein A chip, S1 injected
[18] = biological target: T2, RBD of SARS-CoV-2 spike protein S1 …; experiment: SPR (Biacore T200), IgG captured on protein A chip, RBD injected

Binder	EC50 [2]	EC50 [3]	Kd [4]	koff [4]	kon [4]	Kd [5]	koff [5]	kon [5]	also measured
B1	20.4 nM	5.77 nM	52.5 nM	0.0052 s⁻¹	99000 M⁻¹ s⁻¹	31.4 nM	0.00265 s⁻¹	84300 M⁻¹ s⁻¹	IC50 [1]: 38.4 nM
B2	0.154 nM	0.16 nM	3.35 nM	0.00106 s⁻¹	316000 M⁻¹ s⁻¹	1.89 nM	0.000906 s⁻¹	477000 M⁻¹ s⁻¹	IC50 [6]: < 1 nM; IC50 [1]: 4.94 nM; IC50 [7]: 4.69 nM; Kd [8]: 3.35 nM; koff [8]: 0.00106 s⁻¹; kon [8]: 316000 M⁻¹ s⁻¹; Kd [9]: 1.9 nM; koff [9]: 0.000906 s⁻¹; kon [9]: 477000 M⁻¹ s⁻¹
B3	0.737 nM	0.486 nM	13.2 nM	0.000687 s⁻¹	51900 M⁻¹ s⁻¹	9.61 nM	0.000469 s⁻¹	48900 M⁻¹ s⁻¹	IC50 [6]: 6.69 nM; IC50 [1]: 8.57 nM; IC50 [7]: 6.58 nM
B4									IC50 [10]: 3.79 nM; IC50 [11]: 1.9 nM; EC50 [12]: 0.103 nM; EC50 [13]: 0.053 nM; binding result [14]: no binding (tested: 200 nM (highest concentration tested)); EC50 [15]: 0.462 nM; binding result [16]: no binding (tested: 200 nM (highest concentration tested))
B5									EC50 [12]: 0.045 nM; EC50 [13]: 0.045 nM; binding result [14]: no binding (tested: 200 nM (highest concentration tested)); EC50 [15]: 0.032 nM; binding result [16]: no binding (tested: 200 nM (highest concentration tested)); Kd [17]: 61.9 nM; koff [17]: 0.00507 s⁻¹; kon [17]: 82000 M⁻¹ s⁻¹; Kd [18]: 6.4 nM; koff [18]: 0.00578 s⁻¹; kon [18]: 903000 M⁻¹ s⁻¹
B6									EC50 [12]: 0.101 nM; EC50 [13]: 0.101 nM; binding result [14]: no binding (tested: 200 nM (highest concentration tested)); EC50 [15]: 11.5 nM; binding result [16]: no binding (tested: 200 nM (highest concentration tested))
B7	1.38 nM	0.649 nM				6.14 nM	0.00302 s⁻¹	491000 M⁻¹ s⁻¹	
B8	5.74 nM	2.52 nM				69.4 nM	0.00191 s⁻¹	27500 M⁻¹ s⁻¹	
B9	0.511 nM	0.818 nM	7.84 nM	0.00204 s⁻¹	260000 M⁻¹ s⁻¹	4.4 nM	0.0011 s⁻¹	251000 M⁻¹ s⁻¹	
B10	0.936 nM	0.663 nM	11.2 nM	0.00242 s⁻¹	215000 M⁻¹ s⁻¹				
B11	0.514 nM		19.5 nM	0.00256 s⁻¹	131000 M⁻¹ s⁻¹				binding result [3]: no binding (tested: 200 nM (highest concentration tested))
